Starred links: 1 amine or outer side, 2 acyl side, 3 side chain; linkers in the order of their positions; H or OH if unused. Non-standard residues stand in square brackets, D forms with d. Groups on a side chain read outwards from the residue. No end group written: not given here. *: point of attachment. C20 diacid = O=C(O)CCCCCCCCCCCCCCCCCCC(=O)*; C18 diacid = O=C(O)CCCCCCCCCCCCCCCCC(=O)*; γGlu = O=C(O)[C@H](CCC(=O)[*:2])N[*:1]; AEEA = NCCOCCOCC(=O)O; Aib = CC(C)(N)C(=O)O

Results on six molecules are retold here after patent US12679878B2, “CRF2 receptor agonists and their use in therapy” (SANOFI, priority 2020, dated 2026).

This assay addresses human corticotropin-releasing factor 2α (CRF2 α receptor) (human), Q13324. Kind of assay: cell-based or functional assay.

Chain of human corticotropin-releasing factor 2α (CRF2 α receptor) (human), Q13324 (Q13324 20-411): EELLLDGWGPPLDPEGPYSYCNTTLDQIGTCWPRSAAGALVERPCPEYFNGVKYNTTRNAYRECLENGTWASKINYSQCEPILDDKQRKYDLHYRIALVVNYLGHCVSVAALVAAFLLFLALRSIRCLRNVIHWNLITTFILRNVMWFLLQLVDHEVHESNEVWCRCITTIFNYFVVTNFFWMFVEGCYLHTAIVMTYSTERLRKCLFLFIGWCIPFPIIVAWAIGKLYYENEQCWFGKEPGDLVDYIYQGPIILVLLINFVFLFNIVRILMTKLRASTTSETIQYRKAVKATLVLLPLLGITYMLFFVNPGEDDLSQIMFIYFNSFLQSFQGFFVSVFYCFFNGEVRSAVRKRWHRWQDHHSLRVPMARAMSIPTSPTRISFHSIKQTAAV

B1: SEQ ID NO: 181 (peptide)
peptide: IVLSLD[dV]PIKLK([γGlu-C18 diacid])QILLKQERQKKQRQQAEKNKQILAQV-NH2
modifications: N-terminus assumed
SMILES: CC[C@H](C)[C@H](N)C(=O)N[C@H](C(=O)N[C@@H](CC(C)C)C(=O)N[C@@H](CO)C(=O)N[C@@H](CC(C)C)C(=O)N[C@@H](CC(=O)O)C(=O)N[C@@H](C(=O)N1CCC[C@H]1C(=O)N[C@H](C(=O)N[C@@H](CCCCN)C(=O)N[C@@H](CC(C)C)C(=O)N[C@@H](CCCCNC(=O)CC[C@H](NC(=O)CCCCCCCCCCCCCCCCC(=O)O)C(=O)O)C(=O)N[C@@H](CCC(N)=O)C(=O)N[C@H](C(=O)N[C@@H](CC(C)C)C(=O)N[C@@H](CC(C)C)C(=O)N[C@@H](CCCCN)C(=O)N[C@@H](CCC(N)=O)C(=O)N[C@@H](CCC(=O)O)C(=O)N[C@@H](CCCNC(=N)N)C(=O)N[C@@H](CCC(N)=O)C(=O)N[C@@H](CCCCN)C(=O)N[C@@H](CCCCN)C(=O)N[C@@H](CCC(N)=O)C(=O)N[C@@H](CCCNC(=N)N)C(=O)N[C@@H](CCC(N)=O)C(=O)N[C@@H](CCC(N)=O)C(=O)N[C@@H](C)C(=O)N[C@@H](CCC(=O)O)C(=O)N[C@@H](CCCCN)C(=O)N[C@@H](CC(N)=O)C(=O)N[C@@H](CCCCN)C(=O)N[C@@H](CCC(N)=O)C(=O)N[C@H](C(=O)N[C@@H](CC(C)C)C(=O)N[C@@H](C)C(=O)N[C@@H](CCC(N)=O)C(=O)N[C@H](C(N)=O)C(C)C)[C@@H](C)CC)[C@@H](C)CC)[C@@H](C)CC)C(C)C)C(C)C
Take B1: the EC50 [nM], 0% HSA is 1.18 nM and the EC50 [nM], 0.1% HSA was 15.3 nM.

B2: SEQ ID NO: 178 (peptide)
peptide: IVLSLD[dV]PIKLK([AEEA-AEEA-γGlu-C20 diacid])QILLKQERQKKQRQQAEKNKQILAQV-NH2
modifications: N-terminus assumed
SMILES: CC[C@H](C)[C@H](N)C(=O)N[C@H](C(=O)N[C@@H](CC(C)C)C(=O)N[C@@H](CO)C(=O)N[C@@H](CC(C)C)C(=O)N[C@@H](CC(=O)O)C(=O)N[C@@H](C(=O)N1CCC[C@H]1C(=O)N[C@H](C(=O)N[C@@H](CCCCN)C(=O)N[C@@H](CC(C)C)C(=O)N[C@@H](CCCCNC(=O)COCCOCCNC(=O)COCCOCCNC(=O)CC[C@H](NC(=O)CCCCCCCCCCCCCCCCCCC(=O)O)C(=O)O)C(=O)N[C@@H](CCC(N)=O)C(=O)N[C@H](C(=O)N[C@@H](CC(C)C)C(=O)N[C@@H](CC(C)C)C(=O)N[C@@H](CCCCN)C(=O)N[C@@H](CCC(N)=O)C(=O)N[C@@H](CCC(=O)O)C(=O)N[C@@H](CCCNC(=N)N)C(=O)N[C@@H](CCC(N)=O)C(=O)N[C@@H](CCCCN)C(=O)N[C@@H](CCCCN)C(=O)N[C@@H](CCC(N)=O)C(=O)N[C@@H](CCCNC(=N)N)C(=O)N[C@@H](CCC(N)=O)C(=O)N[C@@H](CCC(N)=O)C(=O)N[C@@H](C)C(=O)N[C@@H](CCC(=O)O)C(=O)N[C@@H](CCCCN)C(=O)N[C@@H](CC(N)=O)C(=O)N[C@@H](CCCCN)C(=O)N[C@@H](CCC(N)=O)C(=O)N[C@H](C(=O)N[C@@H](CC(C)C)C(=O)N[C@@H](C)C(=O)N[C@@H](CCC(N)=O)C(=O)N[C@H](C(N)=O)C(C)C)[C@@H](C)CC)[C@@H](C)CC)[C@@H](C)CC)C(C)C)C(C)C
With B2, the EC50 [nM], 0% HSA was 0.04 nM and the EC50 [nM], 0.1% HSA worked out at 3.77 nM.

B3: SEQ ID NO: 22 (peptide)
peptide: IVLSLDVPIKLK([AEEA-AEEA-γGlu-C18 diacid])QILLKQERQK[Aib]QRQKAEKNKQILAQV-NH2
modifications: N-terminus assumed
SMILES: CC[C@H](C)[C@H](N)C(=O)N[C@H](C(=O)N[C@@H](CC(C)C)C(=O)N[C@@H](CO)C(=O)N[C@@H](CC(C)C)C(=O)N[C@@H](CC(=O)O)C(=O)N[C@H](C(=O)N1CCC[C@H]1C(=O)N[C@H](C(=O)N[C@@H](CCCCN)C(=O)N[C@@H](CC(C)C)C(=O)N[C@@H](CCCCNC(=O)COCCOCCNC(=O)COCCOCCNC(=O)CC[C@H](NC(=O)CCCCCCCCCCCCCCCCC(=O)O)C(=O)O)C(=O)N[C@@H](CCC(N)=O)C(=O)N[C@H](C(=O)N[C@@H](CC(C)C)C(=O)N[C@@H](CC(C)C)C(=O)N[C@@H](CCCCN)C(=O)N[C@@H](CCC(N)=O)C(=O)N[C@@H](CCC(=O)O)C(=O)N[C@@H](CCCNC(=N)N)C(=O)N[C@@H](CCC(N)=O)C(=O)N[C@@H](CCCCN)C(=O)NC(C)(C)C(=O)N[C@@H](CCC(N)=O)C(=O)N[C@@H](CCCNC(=N)N)C(=O)N[C@@H](CCC(N)=O)C(=O)N[C@@H](CCCCN)C(=O)N[C@@H](C)C(=O)N[C@@H](CCC(=O)O)C(=O)N[C@@H](CCCCN)C(=O)N[C@@H](CC(N)=O)C(=O)N[C@@H](CCCCN)C(=O)N[C@@H](CCC(N)=O)C(=O)N[C@H](C(=O)N[C@@H](CC(C)C)C(=O)N[C@@H](C)C(=O)N[C@@H](CCC(N)=O)C(=O)N[C@H](C(N)=O)C(C)C)[C@@H](C)CC)[C@@H](C)CC)[C@@H](C)CC)C(C)C)C(C)C
B3 gave an EC50 [nM], 0% HSA of 0.12 nM.

B4: SEQ ID NO: 182 (peptide)
peptide: IVLSLD[dV]PIKLK(C18 diacid)QILLKQERQK[Aib]QREQAEKNKQILAQV-NH2
modifications: N-terminus assumed
SMILES: CC[C@H](C)[C@H](N)C(=O)N[C@H](C(=O)N[C@@H](CC(C)C)C(=O)N[C@@H](CO)C(=O)N[C@@H](CC(C)C)C(=O)N[C@@H](CC(=O)O)C(=O)N[C@@H](C(=O)N1CCC[C@H]1C(=O)N[C@H](C(=O)N[C@@H](CCCCN)C(=O)N[C@@H](CC(C)C)C(=O)N[C@@H](CCCCNC(=O)CCCCCCCCCCCCCCCCC(=O)O)C(=O)N[C@@H](CCC(N)=O)C(=O)N[C@H](C(=O)N[C@@H](CC(C)C)C(=O)N[C@@H](CC(C)C)C(=O)N[C@@H](CCCCN)C(=O)N[C@@H](CCC(N)=O)C(=O)N[C@@H](CCC(=O)O)C(=O)N[C@@H](CCCNC(=N)N)C(=O)N[C@@H](CCC(N)=O)C(=O)N[C@@H](CCCCN)C(=O)NC(C)(C)C(=O)N[C@@H](CCC(N)=O)C(=O)N[C@@H](CCCNC(=N)N)C(=O)N[C@@H](CCC(=O)O)C(=O)N[C@@H](CCC(N)=O)C(=O)N[C@@H](C)C(=O)N[C@@H](CCC(=O)O)C(=O)N[C@@H](CCCCN)C(=O)N[C@@H](CC(N)=O)C(=O)N[C@@H](CCCCN)C(=O)N[C@@H](CCC(N)=O)C(=O)N[C@H](C(=O)N[C@@H](CC(C)C)C(=O)N[C@@H](C)C(=O)N[C@@H](CCC(N)=O)C(=O)N[C@H](C(N)=O)C(C)C)[C@@H](C)CC)[C@@H](C)CC)[C@@H](C)CC)C(C)C)C(C)C
B4: the EC50 [nM], 0% HSA amounted to 0.03 nM and the EC50 [nM], 0.1% HSA is 3.13 nM.

B5: SEQ ID NO: 180 (peptide)
peptide: IVLSLD[dV]PIKLK([γGlu-C18 diacid])QILLKQARQK[Aib]QRAQAEKNKRILERV-NH2
modifications: N-terminus assumed
SMILES: CC[C@H](C)[C@H](N)C(=O)N[C@H](C(=O)N[C@@H](CC(C)C)C(=O)N[C@@H](CO)C(=O)N[C@@H](CC(C)C)C(=O)N[C@@H](CC(=O)O)C(=O)N[C@@H](C(=O)N1CCC[C@H]1C(=O)N[C@H](C(=O)N[C@@H](CCCCN)C(=O)N[C@@H](CC(C)C)C(=O)N[C@@H](CCCCNC(=O)CC[C@H](NC(=O)CCCCCCCCCCCCCCCCC(=O)O)C(=O)O)C(=O)N[C@@H](CCC(N)=O)C(=O)N[C@H](C(=O)N[C@@H](CC(C)C)C(=O)N[C@@H](CC(C)C)C(=O)N[C@@H](CCCCN)C(=O)N[C@@H](CCC(N)=O)C(=O)N[C@@H](C)C(=O)N[C@@H](CCCNC(=N)N)C(=O)N[C@@H](CCC(N)=O)C(=O)N[C@@H](CCCCN)C(=O)NC(C)(C)C(=O)N[C@@H](CCC(N)=O)C(=O)N[C@@H](CCCNC(=N)N)C(=O)N[C@@H](C)C(=O)N[C@@H](CCC(N)=O)C(=O)N[C@@H](C)C(=O)N[C@@H](CCC(=O)O)C(=O)N[C@@H](CCCCN)C(=O)N[C@@H](CC(N)=O)C(=O)N[C@@H](CCCCN)C(=O)N[C@@H](CCCNC(=N)N)C(=O)N[C@H](C(=O)N[C@@H](CC(C)C)C(=O)N[C@@H](CCC(=O)O)C(=O)N[C@@H](CCCNC(=N)N)C(=O)N[C@H](C(N)=O)C(C)C)[C@@H](C)CC)[C@@H](C)CC)[C@@H](C)CC)C(C)C)C(C)C
Turning to B5, the EC50 [nM], 0% HSA came to 0.05 nM and the EC50 [nM], 0.1% HSA came to 1.74 nM.

B6: SEQ ID NO: 179 (peptide)
peptide: IVLSLD[dV]PIKLK([γGlu-C18 diacid])QILLKQERQK[Aib]QREQAEKNKQILAQV-NH2
modifications: N-terminus assumed
SMILES: CC[C@H](C)[C@H](N)C(=O)N[C@H](C(=O)N[C@@H](CC(C)C)C(=O)N[C@@H](CO)C(=O)N[C@@H](CC(C)C)C(=O)N[C@@H](CC(=O)O)C(=O)N[C@@H](C(=O)N1CCC[C@H]1C(=O)N[C@H](C(=O)N[C@@H](CCCCN)C(=O)N[C@@H](CC(C)C)C(=O)N[C@@H](CCCCNC(=O)CC[C@H](NC(=O)CCCCCCCCCCCCCCCCC(=O)O)C(=O)O)C(=O)N[C@@H](CCC(N)=O)C(=O)N[C@H](C(=O)N[C@@H](CC(C)C)C(=O)N[C@@H](CC(C)C)C(=O)N[C@@H](CCCCN)C(=O)N[C@@H](CCC(N)=O)C(=O)N[C@@H](CCC(=O)O)C(=O)N[C@@H](CCCNC(=N)N)C(=O)N[C@@H](CCC(N)=O)C(=O)N[C@@H](CCCCN)C(=O)NC(C)(C)C(=O)N[C@@H](CCC(N)=O)C(=O)N[C@@H](CCCNC(=N)N)C(=O)N[C@@H](CCC(=O)O)C(=O)N[C@@H](CCC(N)=O)C(=O)N[C@@H](C)C(=O)N[C@@H](CCC(=O)O)C(=O)N[C@@H](CCCCN)C(=O)N[C@@H](CC(N)=O)C(=O)N[C@@H](CCCCN)C(=O)N[C@@H](CCC(N)=O)C(=O)N[C@H](C(=O)N[C@@H](CC(C)C)C(=O)N[C@@H](C)C(=O)N[C@@H](CCC(N)=O)C(=O)N[C@H](C(N)=O)C(C)C)[C@@H](C)CC)[C@@H](C)CC)[C@@H](C)CC)C(C)C)C(C)C
Consider B6, for which the EC50 [nM], 0% HSA stood at 0.03 nM and the EC50 [nM], 0.1% HSA is 1.88 nM.
